This is an account of results in US20220411504A1.

The experiment addresses Human CD3 epsilon (CD3ε) of the T cell receptor complex on cells (human) (UniProt P07766). Nature of the experiment: flow cytometry on Jurkat cells, 10 nM antibody. A general note: Flow cytometry measures light scatter and fluorescence of single cells or particles in a stream.

Sequence of Human CD3 epsilon (CD3ε) of the T cell receptor complex on cells (human) (P07766 23-207 limits assumed, one chain of several): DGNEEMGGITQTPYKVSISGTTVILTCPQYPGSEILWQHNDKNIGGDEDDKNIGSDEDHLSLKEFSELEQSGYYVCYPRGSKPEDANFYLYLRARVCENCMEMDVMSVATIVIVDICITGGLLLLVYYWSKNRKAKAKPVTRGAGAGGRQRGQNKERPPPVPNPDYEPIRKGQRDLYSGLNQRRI

Substance UCHT1 (antibody) gave an MFI (arbitrary units) of 89200.
